Results as given in patent US6468762B1, “High specificity homocysteinases” (AntiCancer, Inc., priority 1997, dated 2002).

Tests used:
[1] = tested on: CSCC[C@H](N)C(=O)O; test: Km of the novel homocysteinase expressed from the pAC2-1 clone (α-ketobutyrate/pyruvate assay, MBTH); format: biochemical, Trichomonas vaginalis; details: other: 37° C., pH 8.0, 100 mM phosphate buffer, 10 μM pyridoxal phosphate, 10 minutes, DL-homocysteine, L-cysteine or L-methionine separately, 10 μM to 1.6 mM
Description: (§1) In FIG. 1 (panels A and B) are depicted the amino acid sequences of two Trichomonas vaginalis homocysteinases, the first derived from a novel clone (pAC2-1) of the present invention, and the second, the enzyme derived from the known mgl1 gene (see also SEQ ID NOS: 10 and 12 for comparison of amino acids; SEQ ID NOS: 9 and 11 for comparison of encoding DNA's). It will be seen that pAC2-1 is characterized by the existence of three differences (mutations), compared to mgl1:
(§2) Phe to Leu at amino acid position 47,
(§3) Asp to Glu at amino acid position 172, and
(§4) Ser to Tyr at amino acid position 308.
(§5) In the first step of this assay, 1 ml volumes of 100 mM phosphate buffer pH 8.0, containing also 10 μM pyridoxal phosphate, […], respectively, were incubated, for 10 min at 37° C., with a sufficient sample (typically 50 μl) of crude cell extract (cells were sonicated, and the supernatant was recovered following centrifugation) to provide about 1-100 units of homocysteinase (“HCYase”) enzyme. The reactions were stopped by adding 0.1 ml of 50% TCA. The suspensions were then centrifuged using an Eppendorf centrifuge at 13 k rpm for 2 minutes. 0.5 ml samples of the supernatants were then added to 0.5 ml of 0.05% 3-methyl-2-benzothiazolinone hydrazone (“MBTH”) in 0.8 ml of 1M sodium acetate, pH 5.2 and incubated at 50° C. for 30 min. The amount of reaction products was determined for each sample, by spectrophotometry at OD320. The amount of protein was determined with a Bio-Rad 500-0006 kit (Bio-Rad, Richmond, Calif.) with bovine serum albumin as a standard. The enzyme specific activity was calculated as units/mg protein, with one unit of enzyme defined as the amount that catalyzes the formation of 1 μmol of α-ketobutyrate from homocysteine per minute. […]
(§6) The reaction was stopped by adding 0.1 ml of 50% TCA. […] The amount of reaction product was then determined by spectrophotometry at OD320. The Kcat (turnover number) values reported in FIG. 5, were determined from the calculation of Vmax values using standard kinetic expressions and plots.

[2] = tested on: N[C@@H](CCS)C(=O)O; test: as above; format: biochemical, Trichomonas vaginalis; details: other: 37° C., pH 8.0, 100 mM phosphate buffer, 10 μM pyridoxal phosphate, 10 minutes, DL-homocysteine, L-cysteine or L-methionine separately, 10 μM to 1.6 mM
Description: as §1, §2, §3, §4, §5, §6

[3] = tested on: N[C@@H](CS)C(=O)O; test: as above; format: biochemical, Trichomonas vaginalis; details: other: 37° C., pH 8.0, 100 mM phosphate buffer, 10 μM pyridoxal phosphate, 10 minutes, DL-homocysteine, L-cysteine or L-methionine separately, 10 μM to 1.6 mM
Description: as §1, §2, §3, §4, §5, §6

[4] = from the relative activity scale
Description: Homocysteinase enzymes of suitable catalytic activity for use as starting materials to obtain mutated forms can be derived from other Pseudomonas species, or from other bacteria, using routine screening procedures and assays that are recognized in the art.

[5] = tested on: Trichomonas vaginalis homocysteinase, isolated native enzyme (may reflect expression from more than one gene); details: native enzyme isolated from T. vaginalis; Lockwood et al., 1991; cited from earlier work
[6] = Homocysteinase specific activity, α-ketobutyrate assay; format: biochemical
Description: In the first step of this assay, 1 ml volumes of 100 mM phosphate buffer pH 8.0, containing also 10 μM pyridoxal phosphate, and different concentrations (25 μM-25 mM) of DL-homocysteine, or L-methionine, L-cysteine, respectively, were incubated, for 10 min at 37° C., with a sufficient sample (typically 50 μl) of crude cell extract (cells were sonicated, and the supernatant was recovered following centrifugation) to provide about 1-100 units of homocysteinase (“HCYase”) enzyme. The reactions were stopped by adding 0.1 ml of 50% TCA. The suspensions were then centrifuged using an Eppendorf centrifuge at 13 k rpm for 2 minutes. 0.5 ml samples of the supernatants were then added to 0.5 ml of 0.05% 3-methyl-2-benzothiazolinone hydrazone (“MBTH”) in 0.8 ml of 1M sodium acetate, pH 5.2 and incubated at 50° C. for 30 min. The amount of reaction products was determined for each sample, by spectrophotometry at OD320. The amount of protein was determined with a Bio-Rad 500-0006 kit (Bio-Rad, Richmond, Calif.) with bovine serum albumin as a standard. The enzyme specific activity was calculated as units/mg protein, with one unit of enzyme defined as the amount that catalyzes the formation of 1 μmol of α-ketobutyrate from homocysteine per minute. The assay procedure can, of course, also be used with purified homocysteinase samples that provide, for example, 1-100 units of enzyme per assay test.
Alternatively, an additional two stage strategy may be used. In the first stage, the partitioning material was DEAE Sepharose® FF, and loading and pre-washing were conducted with 20 mM sodium phosphate buffer, pH 7.2. Elution of the protein was accomplished using a linear gradient (8 ml/min) from 20 mM sodium phosphate buffer, pH 7.2 (solution A) to 20 mM sodium phosphate buffer, pH 7.2, 500 mM NaCl (solution B). In the second stage, the partitioning material was phenyl Sepharose® 6-FF, and loading and pre-washing were conducted with 0.6 M NH4SO4 in 20 mM sodium phosphate buffer, pH 7.2. Elution of the protein was accomplished using a linear gradient (5 ml/min) from 0.6 M NH4SO4, 20 mM sodium phosphate buffer, pH 7.2 (solution A) to 20 mM sodium phosphate buffer, pH 7.2, (solution B). The following purification results were obtained for this alternate procedure. The above-described cell-lysate contained 8400 units of homocysteinase at a specific activity (units/mg) of 5.2. Following completion of pre-column procedures, 6,300 units were recovered at a specific activity of 64 (about 75% yield). Upon completion of the DEAE Sepharose®-FF step (first column), 5,040 units were recovered at a specific activity of 172 (60% yield), while after the phenyl Sepharose® 6-FF step (second column), 4,200 units remained at a specific activity of 300 (50% yield).
An activity assay for the keto product of the α, γ or α,β-elimination (α-keto butryate for homocysteine) was carried out in a 1.5 ml Eppindorf tube using 1-ml. of 50 mM phosphate buffer pH 8.0 (also containing 10 μM pyridoxal phosphate and 20 mM homocysteine) for 10 minutes at 37° C., with varying amounts of enzyme. The reaction was stopped by adding 0.5 ml of 4.5% TCA. […]
The amount of reaction product was determined by spectrophotometry at OD335. […] The amount of protein was determined with the Lowry Reagent Kit (Sigma) with bovine serum albumin as a standard. The specific activity was calculated as units/mg protein, with one unit of enzyme defined as the amount that catalyzed the formation of 1 μmol of α-ketobutyrate/minute.

[7] = Relative activity toward homocysteine versus cysteine or methionine; format: biochemical; details: apparent activity
Description: In the first step of this assay, 1 ml volumes of 100 mM phosphate buffer pH 8.0, containing also 10 μM pyridoxal phosphate, and different concentrations (25 μM-25 mM) of DL-homocysteine, or L-methionine, L-cysteine, respectively, were incubated, for 10 min at 37° C., with a sufficient sample (typically 50 μl) of crude cell extract (cells were sonicated, and the supernatant was recovered following centrifugation) to provide about 1-100 units of homocysteinase (“HCYase”) enzyme. The reactions were stopped by adding 0.1 ml of 50% TCA. The suspensions were then centrifuged using an Eppendorf centrifuge at 13 k rpm for 2 minutes. 0.5 ml samples of the supernatants were then added to 0.5 ml of 0.05% 3-methyl-2-benzothiazolinone hydrazone (“MBTH”) in 0.8 ml of 1M sodium acetate, pH 5.2 and incubated at 50° C. for 30 min. The amount of reaction products was determined for each sample, by spectrophotometry at OD320. The amount of protein was determined with a Bio-Rad 500-0006 kit (Bio-Rad, Richmond, Calif.) with bovine serum albumin as a standard. The enzyme specific activity was calculated as units/mg protein, with one unit of enzyme defined as the amount that catalyzes the formation of 1 μmol of α-ketobutyrate from homocysteine per minute. The assay procedure can, of course, also be used with purified homocysteinase samples that provide, for example, 1-100 units of enzyme per assay test. […]

[8] = Single enzyme assay detecting product hydrogen sulfide: contribution of homocysteine versus cysteine; format: biochemical
Description: According to the preferred practice of the invention, homocysteinases are provided wherein the relative activities of said enzymes toward homocysteine versus cysteine are such that, by detecting product hydrogen sulfide, the apparent concentration of homocysteine measured in a patient sample (which reflects also a contribution from cysteine) is less that about 150%, preferably less than about 110%, and most preferably less than about 102%, of the actual value thereof. In a further preferred example of the invention, for example using the novel Trichomonas homocysteinase expressed from pAC2-1, the apparent concentration of homocysteine measured in a single enzyme assay reflects no more than about a 1% false contribution from cysteine.
In general, useful diagnostic information can be obtained when the amount of produced hydrogen sulfide attributable to homocysteine is about one half of the total. […] Preferably, however the fraction of total hydrogen sulfide detected in an assay that is attributable to homocysteine is at least 90%, preferably 95%, more preferably 98%, and most preferably 99% or greater. The 99% level is readily obtained according to the practice of the invention, for example using the homocysteinase represented by SEQ ID NO: 10. […]

In the case of “Trichomonas vaginalis homocysteinase, pAC2-1 clone (recombinant in E. coli BL21 (DE3)), SEQ ID NO: 10; versus mgl1 (SEQ ID NO: 12): Phe47 to Leu, Asp172 to Glu, Ser308 to Tyr; N-terminal 6x His (Trichomonas vaginalis; D172E/F47L/S308Y)”, the Km [1] is reported as 3.1 mM, the Km [2] is reported as 4.8 mM and the Km [3] is reported as 3.45 mM.

In the case of “L-methionine-alpha-deamino-gamma-mercaptomethane lyase [P. putida enzyme]”, the “apparent preference for homocysteine over cysteine” value [4] is reported as about 10 fold.

For `N[C@@H](CCS)C(=O)O` (racemic) [homocysteine], the Km [5] is given as about 0.5 mM.

B1: SEQ ID NO: 10: recombinant Trichomonas vaginalis homocysteinase from E. coli clone pAC2-1 (ATCC 98549), with 6 N-terminal histidine residues (protein)
chain: MHHHHHHMSHERMTPATACIHANPQKDQFGAAIPPIYQTSTFVFDNCQQGGNRLAGQESGYIYTRLGNPTVSNLEGKIAFLEKTEACVATSSGMGAIAATVLTILKAGDHLISDECLYGCTHALFEHALTKFGIQVDFINTAIPGEVKKHMKPNTKIVYFETPANPTLKIIDMERVCKEAHSQEGVLVIADNTFCSPMITNPVDFGVDVVVHSATKYINGHTDVVAGLICGKADLLQQIRMVGIKDITGSVISPHDAWLITRGLSTLNIRMKAESENAMKVAEYLKSHPAVEKVYYPGFEDHEGHDIAKKQMRMYGSMITFILKSGFEGAKKLLDNLKLITLAVSLGGCESLIQHPASMTHAVVPKEEREAAGITDGMIRLSVGIEDADELIADFKQGLDALL
modifications: N-terminal His6 tag
notes: recombinant Trichomonas vaginalis homocysteinase from E. coli clone pAC2-1 (ATCC 98549), with 6 N-terminal histidine residues
In the case of B1, the specific activity ([6]; after DEAE Sepharose-FF step) is reported as 172 units/mg, the specific activity ([6]; after phenyl Sepharose 6-FF step) is reported as 300 units/mg and the specific activity ([6]; after pre-column procedures) is reported as 64 units/mg. For the same molecule, the specific activity ([6]; cell-lysate) was 5.2 units/mg, the specific activity ([6]; commercial product HYase from AntiCancer, Inc) was 40 units/mg and the “activity for homocysteine relative to cysteine and methionine” value [7] was “at least 100 fold”. The “fraction of total hydrogen sulfide detected that is attributable to homocysteine” value ([8]; single enzyme assay of patient samples) was at least 99% and the “false contribution from cysteine to apparent homocysteine concentration” value ([8]; single enzyme assay, product hydrogen sulfide detected) was at most 1%.
